# Test results taken from patent US20130142799A1 (Amgen, published 2013).
# Where a chain is given by its changes, count along the chain named.
# T1: human angiopoietin-2 (human, UniProt O15123 19-496, limits assumed)
# T1 construct: also called hAng-2; huAng-2
# T1 sequence (looked up): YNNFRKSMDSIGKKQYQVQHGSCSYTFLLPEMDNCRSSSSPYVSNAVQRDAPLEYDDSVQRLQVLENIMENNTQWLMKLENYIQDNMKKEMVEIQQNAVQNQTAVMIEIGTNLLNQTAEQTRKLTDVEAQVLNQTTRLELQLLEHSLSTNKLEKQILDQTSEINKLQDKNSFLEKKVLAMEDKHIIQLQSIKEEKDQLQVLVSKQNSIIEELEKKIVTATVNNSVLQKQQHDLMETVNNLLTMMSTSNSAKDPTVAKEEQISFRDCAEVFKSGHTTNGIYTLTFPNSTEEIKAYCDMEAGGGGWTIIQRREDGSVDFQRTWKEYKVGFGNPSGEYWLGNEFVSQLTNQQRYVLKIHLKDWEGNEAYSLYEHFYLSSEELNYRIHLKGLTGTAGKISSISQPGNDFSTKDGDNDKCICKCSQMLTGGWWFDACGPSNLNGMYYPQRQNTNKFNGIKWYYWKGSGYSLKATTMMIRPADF
# T2: murine Ang-2, His-tagged (mouse, UniProt O35608 19-496)
# T2 construct: also called mAng-2; mAng-2-His
# T2 sequence (looked up): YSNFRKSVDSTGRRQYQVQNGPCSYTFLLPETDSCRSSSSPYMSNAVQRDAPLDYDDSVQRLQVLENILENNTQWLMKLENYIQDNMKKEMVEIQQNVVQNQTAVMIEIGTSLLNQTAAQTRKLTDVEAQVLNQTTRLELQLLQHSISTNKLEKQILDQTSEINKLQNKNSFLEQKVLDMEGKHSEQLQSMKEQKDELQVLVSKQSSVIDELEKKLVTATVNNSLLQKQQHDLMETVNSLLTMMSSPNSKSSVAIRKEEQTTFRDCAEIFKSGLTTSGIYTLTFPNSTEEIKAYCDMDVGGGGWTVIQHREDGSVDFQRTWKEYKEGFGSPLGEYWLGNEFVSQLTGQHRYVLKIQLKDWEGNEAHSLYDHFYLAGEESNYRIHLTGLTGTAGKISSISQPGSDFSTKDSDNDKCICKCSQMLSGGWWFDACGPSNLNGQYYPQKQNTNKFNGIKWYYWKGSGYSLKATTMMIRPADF
# B1: Ab 553 (antibody, human IgG1, kappa, V domains shown)
# VH: QVQLVQSGAEVKKPGASVKVSCKASGYTFTSYAMHWVRQAPGQRLEWMGWINAGNGNTKYSQKFQGRVTITRDTSASTAYMELSGLRSEDTAVYYCARGVDDYGGNSWAFDIWGQGTMVTVSS
# VL: DIVMTQSPLSLPVTPGEPASISCRSSQSLLHSNGYNYLDWYLQKPGQSPQLLIYLGSNRASGVPDRFTGSGSATDFTLRISRVEAEDVGVYYCMQALQTPLTFGGGTKVEIKR
# notes: Fully human IgG1 kappa
# B2: Ab 535 (antibody, human IgG1, lambda, V domains shown)
# VH: QVQLVQSGAEVKKPGSSVKVSCKASGGTFSSYAISWVRQAPGQGLEWMGGIIPIFGTANYAQKFQGRVTITADKSTSTAYMELSSLRSEDTAVYYCAAFSPFTETDAFDIWGQGTMVTVSS
# VL: QSVLTQPPSVSAAPGQKVTISCSGSNSNIGNNFVSWYQQLPGTAPKLLVYDNNKRPSGIPDRFSGSKSGTSATLGITGLQTGDEADYYCGTWDSSLSAAEVVFGGGTKLTVLG
# notes: Fully human IgG1 lambda
# B3: Ab 555 (antibody, human IgG1, kappa, V domains shown)
# VH: QVQLQESGGGVVQPGRSLRLSCAASGFTFSSYAMHWVRQAPGKGLEWVAVISYDGSNKYYADSVKGRFTISRDNSKNTLYLQMNSLRAEDTAVYYCARSASDHYYDSSGYYSDAFDIWGQGTMVTVSS
# VL: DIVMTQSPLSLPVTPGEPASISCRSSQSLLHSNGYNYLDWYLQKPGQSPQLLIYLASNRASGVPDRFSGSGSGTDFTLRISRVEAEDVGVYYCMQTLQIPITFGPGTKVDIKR
# notes: Fully human IgG1 kappa
# B4: Ab 540 (antibody, human IgG1, lambda, V domains shown)
# VH: QVQLVQSGAEVKKPGSSVKVSCKASGGTFSSYAISWVRQAPGQGLEWMGGIIPILGIANYAQKFQGRVTITADKFTSTAYMELSSLGSEDTAVYYCARAVPGTEDAFDIWGQGTMVTVSS
# VL: QSVLTQPPSVSAAPGQKVTISCSGSSSNIGANYVSWYQQLPGTAPKLLIYNNNKRPSGIPDRFSGSKSDTSATLGITGLQTGDEADYYCGAWDSSLSASWVFGGGTKLTVLG
# notes: Fully human IgG1 lambda
# B5: Ab 531 (antibody, human IgG1, lambda, V domains shown)
# VH: EVQLVQSGAEVKKPGSSVKVSCKASGGTFSSYAISWVRQAPGQGLEWMGGIIPILGIANYAQKFQGRVTITADKSTNTAYMELTSLTSDDTAVYYCARDREDTAMVFNYWGQGTLVTVSS
# VL: B4 VL with I20V, A31N, N51D, D69G, A91T, S99F
# notes: Fully human IgG1 lambda
# B6: Ab 537 (antibody, human IgG1, V domains shown)
# VH: QVQLVQSGAEVKKPGSSVKVSCKASGGTFSSYAISWVRQAPGQGLEWMGGIIPILGIANYAQKFQGRVTITADKSTSTAYMELSGLGSEDTAVYYCARGSSDAAVAGMWGQGTLVTVSS
# VL: QSVLTQPPSVSAAPGQDVTISCSGNNSNIGNNYVSWYQQVPGTAPKLLVYDNHKRPSGISDRFSGSKSDTSATLDITGLQPGDEADYYCGTWDTSLSANWVFGGGTKLTVLR
# notes: Fully human IgG1 lambda; also called clone 537
# B7: Ab 528 (antibody, human IgG1, lambda, V domains shown)
# VH: QVQLVQSGAEVKKPGSSVKVSCKASGGTFSSYAISWVRQAPGQGLEWMGGIIPIFGTANYAQKFQGRVTITADESTSTAYMELSSLRSEDTAVYYCARGVVGDFDWLSFFDYWGQGTLVTVSS
# VL: SYELTQPPSVSVSPGQTASITCSGDKLGYTYTSWFQQKPGQSPVLVIFQDFKRPSGIPERFSGSNSGNTATLTISGTQAMDEADYYCQAWDSTTAVVFGTGTKVTVLG
# notes: Fully human IgG1 lambda
# B8: Ab 543 (antibody, human IgG1, kappa, V domains shown)
# VH: QVQLVQSGAEVKKPGSSVKVSCKASGGTFSSYAISWVRQAPGQGLEWMGRIIPILGIANYAQKFQGRVTITADKSTSTAYMELSSLRSEDTAVYYCARPYYDFWSGPGGMDVWGQGTTVTVSS
# VL: not shown
# notes: Fully human IgG1 kappa
# B9: Ab 533 (antibody, human IgG1, kappa, V domains shown)
# VH: EVQLVQSGGGVVQPGRSLRLSCAASGFTFSSYGMHWVRQAPGKGLEWVSYISSSGSTIYYADSVKGRFTISRDNAKNSLYLQMNSLRAEDTAVYYCARDLLDYDILTGYGYWGQGTLVTVSS
# VL: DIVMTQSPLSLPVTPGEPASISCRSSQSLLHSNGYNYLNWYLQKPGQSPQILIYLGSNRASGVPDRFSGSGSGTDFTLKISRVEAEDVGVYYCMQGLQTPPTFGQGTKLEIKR
# notes: also called clone 533
# Target: T1, human angiopoietin-2
# Experiment: Neutralization ELISA: antibody titrated against 1 nM Tie2-Fc on plate-bound hAng-2
# Description: Microtiter plates to which human Ang-2 polypeptide was bound were prepared as described for the Affinity ELISA. […] Next, about 100 microliters per well of goat anti-mouse-IgG-HRP (Pierce Chemical CO., catalog #31432) was added at a dilution of 1:10,000 in PBS containing about 1 percent BSA. Plates were incubated at room temperature for about 1 hour, after which they were washed five times with PBS containing about 0.1 percent Tween-20. About 100 microliters per well of TMB substrate (described above) was then added and color was allowed to develop. Absorbance was then read in a spectrophotomer at 370 nm.
# Seventeen of the antibodies and a negative control IgG1 (referred to as RDB1) were tested using affinity and neutralization ELISA (as described in Example 3 above) as well as the BIAcore neutralization assay to determine their affinity, neutralization, and specificity capabilities.
row,Binder,IC50
1,B1,1.47 nM
2,B2,2.81 nM
3,B3,2.21 nM
4,B4,0.7 nM
5,B5,2.15 nM
6,B6,0.56 nM
7,B7,1.37 nM
8,B8,0.51 nM
9,B9,0.3 nM

# Target: T2, murine Ang-2, His-tagged
# Experiment: Neutralization ELISA: antibody titrated against 1 nM Tie2-Fc on plate-bound mAng-2
row,Binder,IC50
1,B1,1.41 nM
2,B2,2.45 nM
3,B3,1.76 nM
4,B4,1.53 nM
5,B5,1.67 nM
6,B6,0.62 nM
7,B7,0.73 nM
8,B8,0.24 nM
9,B9,0.08 nM
